Results: patent publication US6858210B1, “Therapeutic and diagnostic domain 1 β2GPI polypeptides and methods of using same” (La Jolla Pharmaceutical Co., priority 1998, dated 2005)
Read-outs that look alike come from different tables or passages of the source.

What was measured:
[1] = target: affinity purified β2GPI-dependent antiphospholipid antibody from patient 6644; assay: comp. inhibition ELISA
[2] = target: affinity purified β2GPI-dependent antiphospholipid antibody from patient 6652; assay: comp. inhibition ELISA
[3] = target: β2GPI-dependent antiphospholipid antibody from patient 6626; assay: comp. inhibition ELISA
[4] = target: β2GPI-dependent antiphospholipid antibody from patient 7015; assay: comp. inhibition ELISA
[5] = target: affinity purified β2GPI-dependent antiphospholipid antibody from patient 6632; assay: comp. inhibition ELISA
[6] = target: affinity purified β2GPI-dependent antiphospholipid antibody from patient 7008; assay: comp. inhibition ELISA
[7] = target: affinity purified β2GPI-dependent antiphospholipid antibody from patient 7104; assay: comp. inhibition ELISA
[8] = target: affinity purified β2GPI-dependent antiphospholipid antibody from patient 6203; assay: comp. inhibition ELISA
[9] = target: affinity purified β2GPI-dependent antiphospholipid antibody preparation 6641 (from patient 6641); assay: comp. inhibition ELISA
[10] = target: β2GPI-dependent antiphospholipid antibody from patient 6501; assay: comp. inhibition ELISA
[11] = test system: affinity purified β2GPI-dependent antiphospholipid antibody; assay: Cardiolipin based ELISA, recombinant β2GPI proteins bound to cardiolipin coated wells; format: binding, human; details: cardiolipin coated plates
Procedure: Microtiter plates (Immulon 1 #3350 from Dynex Technologies) were coated with 30 μl of a 50 μg/ml solution of cardiolipin in ethanol, dried overnight at 4° C., washed three times with PBS, pH 7.2, and blocked for one hour at room temperature with 75 μl of 5% (wt/v) fish gelatin, (Hipure Liquid Gelatin, Norland Products Inc. 695 Joyce Kilmer Ave., New Brunswick N.J., USA). The plates were washed three times with PBS, charged with 50 μl of full length recombinant β2GPI at 10 μg/ml in 5% fish gelatin and incubated at 37° C. for one hour. […] The optical density, at 550 nm, was determined by reading the plates in a microplate autoreader (Bio-Teck Instruments, model EL311).
Seven different recombinant β2GPI mutant proteins were examined to determine if they could support the direct binding of affinity purified β2GPI-dependent antiphospholipid antibody preparations in the presence of anionic phospholipid. All seven recombinant mutant β2GPI were assayed with rabbit anti-β2GPI and with an affinity purified β2GPI-dependent antiphospholipid antibody preparation. Each mutant recombinant β2GPI protein was tested, in a dose dependent fashion and GST-6his was included as a negative control. The recombinant mutant β2GPI proteins were bound to microtiter plates that had previously been coated with cardiolipin. […]

[12] = target: affinity purified β2-GPI domain 1 specific antibodies from patients 6701 and 6626; assay: Surface plasmon resonance Kd determination on immobilized antibodies; format: binding, human; details: read-out: Apparent equilibrium dissociation constant
Procedure: Reagents. CM5 chips, NHS and EDC and HBS-EP buffer were from BIAcore. Human pooled normal IgG (Zymed) was immobilized in a separate flow cell on the chip and used as a negative control. Affinity purified 2-GPI domain 1 specific antibodies from 2 patients (6701 and 6626) were immobilized in separate flow cells.
Surface Plasmon Resonance. All experiments were done on a BIAcore™ 2000 instrument at 25° C. with a flow rate of 10 μL/minute. Chip equilibration and binding studies were performed with degassed HBS-EP buffer, which consists of 0.01 M HEPES pH 7.4, 0.15 M NaCl, 3 mM EDTA and 0.005% (v/v) surfactant β20. […]
Titrations. […] Since the approach to binding equilibrium was incomplete during the measurement period, the equilibrium binding value (Req) was determined by fitting the association curves to the following equation using the manufacturer software (BiaEvaluation version 2.2, Uppsala, Sweden)): Rt=Req(1−e^−ks(t−t0))+R0 where Rt is the measured BIAcore response at time t, Req is the equilibrium plateau response, t is time, t0 is initial time, ks is an apparent association constant (ks=kaC+kdis where ka is the association constant, C is the analyte concentration and kdis is the dissociation constant), and R0 is a response offset, (Marquart-Levenberg algorithm). […]

B1: recombinant β2GPI domain 5 with GlyHis6 (----5) (protein)
chain: GRASCKLPVKKATVVYQGERVKIQEKFKNGMLHGDKVSFFCKNKEKKCSYTEDAQCIDGTIEVPKCFKEHSSLAFWKTDASDVKPCGHHHHHH
**Q.** Which results are given for B1?
**A.** IC50 [1]: > 47 µM; Max inhibition [1]: 10%; IC50 [2]: > 47 µM; Max inhibition [2]: 15%; IC50 [3]: > 47 µM; Max inhibition [3]: 10%; IC50 [4]: > 47 µM; Max inhibition [4]: 10%; IC50 [5]: > 47 µM; Max inhibition [5]: 10%; IC50 [6]: > 47 µM; Max inhibition [6]: 20%; IC50 [7]: > 47 µM; Max inhibition [7]: 0%; IC50 [8]: > 47 µM; Max inhibition [8]: 5%; IC50 [9]: > 47 µM; Max inhibition [9]: 10%; IC50 [10]: > 47 µM; Max inhibition [10]: 10%

B2: 12345: recombinant full length human β2GPI (domains 1-5) with C-terminal GlyHis6, baculovirus expressed (protein)
chain: GRTCPKPDDLPFSTVVPLKTFYEPGEEITYSCKPGYVSRGGMRKFICPLTGLWPINTLKCTPRVCPFAGILENGAVRYTTFEYPNTISFSCNTGFYLNGADSAKCTEEGKWSPELPVCAPIICPPPSIPTFATLRVYKPSAGNNSLYRDTAVFECLPQHAMFGNDTITCTTHGNWTKLPECREVKCPFPSRPDNGFVNYPAKPTLYYKDKATFGCHDGYSLDGPEEIECTKLGNWSAMPSCKASCKLPVKKATVVYQGERVKIQEKFKNGMLHGDKVSFFCKNKEKKCSYTEDAQCIDGTIEVPKCFKEHSSLAFWKTDASDVKPCGHHHHHH
**Q.** For B2, which “direct binding of patient antibody” value [11] is on record?
**A.** readily detected

B3: 1----: recombinant β2GPI protein with domain 1 only (SEQ ID NO:4 region), His6 tail (protein)
chain: GRTCPKPDDLPFSTVVPLKTFYEPGEEITYSCKPGYVSRGGMRKFICPLTGLWPINTLKCTPRVGHHHHHH
**Q.** For B3, which Kd ([12]; immobilized antibody from patient 6626) is on record?
**A.** 0.333 ± 0.018 µM

**Q.** And the Kd ([12]; immobilized antibody from patient 6701)?
**A.** 0.417 ± 0.036 µM
